The record followed here is patent CN113999308A (SHENZHEN PEOPLES HOSPITAL, dated 2022).

In this test the target is T1, CDH17蛋白细胞外段1~3结构域 (recombinant CDH17 extracellular domains 1-3) (human, UniProt Q12864 23-340, limits assumed).
T1 construct: domain: 细胞外段1~3 结构域; purified on Ni resin, so probably His-tagged, but the tag is not described; also called CDH17 1-3D; CDH17 1~3结构域蛋白
T1 sequence (looked up): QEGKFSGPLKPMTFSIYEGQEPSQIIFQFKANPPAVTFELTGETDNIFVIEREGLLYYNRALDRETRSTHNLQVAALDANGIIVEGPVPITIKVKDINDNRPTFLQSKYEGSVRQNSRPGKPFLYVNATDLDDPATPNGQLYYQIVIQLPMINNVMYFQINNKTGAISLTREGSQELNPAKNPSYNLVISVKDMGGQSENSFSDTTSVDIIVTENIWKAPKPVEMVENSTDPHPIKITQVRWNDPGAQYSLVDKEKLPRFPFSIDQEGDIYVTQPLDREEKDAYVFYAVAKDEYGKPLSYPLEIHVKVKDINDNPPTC
As to the kind of experiment: SPR (Biacore), purified antigen on the chip, nanobody as analyte (Fig. 5E).

B1: Nb193纳米抗体 (Nb193 nanobody) (VHH)
VHH: AVQLVESGGGLVQAGGSLRLSCVASGSTLERYAVYWYRQPPGKERELVAGIMRGGNINYADSVKGRFTISKDYAKNTLILQMNSLKPEDTAVYYCNAGGSRFGYWGQGTQVTVSS
notes: From a naive alpaca phage display nanobody library; Expressed in E. coli with HA tag and His tag, about 15 kDa; the tag piece is put last only for want of better; not shown: HA tag and His tag fused to the nanobody (pET-14B, E. coli)
For B1, the Kd (commonly the equilibrium constant for the complex coming apart) came to 17.6 nM.
